This note sets out measurements from patent publication US20240158497A1 (published 2024).

For assay [1], the target named is T1, full length human GP130 (L2V natural variant) on HEK293/Stat3-luc/gp130-2X Sort cells (human, UniProt P40189 23-918).
T1 construct: whole, on cells; Stably over-expressed on HEK293 cells, sorted twice for high expression; also called HEK293/gp130 2X Sort
T1 sequence (looked up): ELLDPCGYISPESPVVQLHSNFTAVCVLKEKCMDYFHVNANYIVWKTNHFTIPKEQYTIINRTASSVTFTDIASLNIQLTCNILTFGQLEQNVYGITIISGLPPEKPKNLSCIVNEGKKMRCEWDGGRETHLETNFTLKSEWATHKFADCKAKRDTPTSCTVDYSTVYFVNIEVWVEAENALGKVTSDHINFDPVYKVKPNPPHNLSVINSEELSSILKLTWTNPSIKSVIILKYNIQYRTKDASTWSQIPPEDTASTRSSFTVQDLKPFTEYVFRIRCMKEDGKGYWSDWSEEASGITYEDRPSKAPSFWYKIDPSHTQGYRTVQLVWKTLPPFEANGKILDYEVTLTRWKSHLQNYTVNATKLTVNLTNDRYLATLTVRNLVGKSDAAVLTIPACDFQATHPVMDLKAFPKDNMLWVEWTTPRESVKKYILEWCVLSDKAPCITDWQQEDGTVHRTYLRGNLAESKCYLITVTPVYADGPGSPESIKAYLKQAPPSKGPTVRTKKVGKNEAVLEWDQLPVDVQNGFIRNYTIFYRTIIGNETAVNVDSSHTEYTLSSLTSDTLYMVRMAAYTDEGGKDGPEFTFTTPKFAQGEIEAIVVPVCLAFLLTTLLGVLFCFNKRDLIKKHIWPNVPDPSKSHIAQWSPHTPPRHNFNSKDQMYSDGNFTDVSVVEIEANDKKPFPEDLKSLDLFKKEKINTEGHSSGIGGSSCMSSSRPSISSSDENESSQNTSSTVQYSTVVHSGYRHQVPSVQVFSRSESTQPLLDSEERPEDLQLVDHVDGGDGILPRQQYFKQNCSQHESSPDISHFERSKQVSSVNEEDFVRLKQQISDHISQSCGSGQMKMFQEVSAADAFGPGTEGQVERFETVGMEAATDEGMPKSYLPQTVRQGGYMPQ
The assay is described as follows: FACS, 200 nM antibody on HEK293/gp130 2X Sort cells. The procedure: (§1) For the FACS analysis, 0.5×10^6 cells/well of HEK293 parental cells, HEK293/Stat3-luc/gp130-2 X Sort cells, and HEK293/hLEPR-GPI cells, were incubated with 200 nM of the conventional antibodies against either GP130 or LEPR or with LEPRxGP130 bispecific antibodies, along with isotype control antibodies at 4° C. in PBS (without calcium and magnesium) containing 2% FBS.
(§2) Cells were fixed using BD CytoFix™ (Becton Dickinson, #554655) and analyzed on an IQue® (Intellicyt) Flow Cytometer. Unstained and secondary antibody alone controls were also tested for all cell lines. The results were analyzed using ForeCyt® (IntelliCyt) and FlowJo version 10 softwares to determine the geometric means of fluorescence for viable cells.
(A flow cytometer gives signals particle by particle.)

The target in assay [2] is T2, extracellular domain of human LEPR, GPI-anchored, on HEK293/hLEPR-GPI cells (human, UniProt P48357 22-839, GPI anchor at the C-terminus ; GPI anchor at the C-terminus, added through the carboxypeptidase M signal peptide. The N-terminal myc-myc tag is not written.).
T2 sequence: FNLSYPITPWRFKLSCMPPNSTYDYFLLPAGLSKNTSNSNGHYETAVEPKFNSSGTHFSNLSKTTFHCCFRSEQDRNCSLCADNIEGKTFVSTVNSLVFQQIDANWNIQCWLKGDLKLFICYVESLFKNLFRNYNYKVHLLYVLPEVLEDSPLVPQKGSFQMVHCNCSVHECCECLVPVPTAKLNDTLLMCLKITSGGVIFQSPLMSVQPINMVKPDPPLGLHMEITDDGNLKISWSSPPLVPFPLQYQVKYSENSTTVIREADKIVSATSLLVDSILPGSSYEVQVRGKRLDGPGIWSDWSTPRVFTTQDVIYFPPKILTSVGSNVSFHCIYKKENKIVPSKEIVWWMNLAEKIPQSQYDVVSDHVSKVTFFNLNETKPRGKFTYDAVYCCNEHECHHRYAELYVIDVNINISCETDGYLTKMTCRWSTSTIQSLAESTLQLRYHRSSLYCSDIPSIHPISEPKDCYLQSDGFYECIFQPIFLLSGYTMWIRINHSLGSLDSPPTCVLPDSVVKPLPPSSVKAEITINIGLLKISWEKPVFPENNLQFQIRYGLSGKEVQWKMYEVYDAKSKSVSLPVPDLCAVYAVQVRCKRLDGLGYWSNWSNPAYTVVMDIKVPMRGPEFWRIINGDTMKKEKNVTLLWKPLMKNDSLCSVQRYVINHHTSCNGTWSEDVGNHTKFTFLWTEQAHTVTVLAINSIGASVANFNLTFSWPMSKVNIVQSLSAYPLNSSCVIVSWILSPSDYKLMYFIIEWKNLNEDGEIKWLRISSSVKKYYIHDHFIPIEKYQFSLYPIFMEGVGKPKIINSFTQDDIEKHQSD
The assay is described as follows: FACS, 200 nM antibody on HEK293/hLEPR-GPI cells, no Leptin. The procedure:
as §1, §2

Assay [3] addresses T2, extracellular domain of human LEPR, …. The assay is described as follows: FACS, 200 nM antibody on HEK293/hLEPR-GPI cells, 1 µM Leptin. The procedure: as §1, §2
The target in assay [4] is T3, mouse GP130 extracellular domain expressed with a C-terminal myc-myc-hexahistidine tag (mouse, UniProt Q00560 23-617).
T3 construct: monomeric; also called mGP130-mmH; mGP130-MMH
The assay is described as follows: SPR. How it is done: (§3) Equilibrium dissociation constant (KD) for different GP130 reagents binding to purified anti-GP130 monoclonal antibodies were determined using a real-time surface plasmon resonance based Biacore 4000 biosensor. All binding studies were performed in 10 mM HEPES, 150 mM NaCl, 3 mM EDTA, and 0.05% v/v Surfactant Tween-20, pH 7.4 (HBS-ET) running buffer at 25° C. and 37° C. The Biacore sensor surface was first derivatized by amine coupling with a monoclonal mouse anti-human Fc antibody (GE, #BR-1008-39) to capture anti-GP130 monoclonal antibodies. […] Reagents tagged with “mmH” are monomeric, whereas reagents tagged with “mFc” are dimeric. Thus, for example, “hGP130-mmH” is also referred to as “monomeric human GP130,” and “hGP130-mFc” is also referred to as “dimeric human GP130.”
(§4) The association rate (k a) and dissociation rate (kd) were determined by fitting the real-time binding sensorgrams to a 1:1 binding model with mass transport limitation using Scrubber 2.0c curve-fitting software. Binding dissociation equilibrium constant (KD) and dissociative half-life (t ½) were calculated from the kinetic rates as: […]
Background: In SPR one partner is held on a chip, and binding of the other changes the refractive index at the surface.

The target of assay [5] is T4, human GP130 delta D1 expressed with a C-terminal myc-myc hexahistidine tag (human, UniProt P40189 124-619).
T4 construct: CHO supernatant, captured on anti-myc microspheres; also called human GP130 delta D1-MMH
The assay is described as follows: Luminex, myc-captured antigen. How it is done:
(§5) Aliquots of microspheres with immobilized anti-myc monoclonal antibodies, prepared as described above, were added individually to 1 mL of the each of these protein supernatants and to 500 uL of purified GP130 protein. The microspheres were gently mixed, incubated for two hours at 25° C., washed twice with 1 mL of DBPS, centrifuged to remove the supernatant and finally resuspended in 1 mL of DPBS buffer. Forty eight μL of anti-myc IgG coupled microspheres from individual reactions with full length human GP130 and with each of the human GP130 domain proteins were withdrawn and mixed together in 3.6 mL of PBS+20 mg/mL BSA+0.05% sodium azide (blocking buffer).
(§6) From this mixed pool, 75 μL of microspheres were plated per well on a 96 well filter plate (Millipore, Cat. No: MSBVN1250) and mixed with 25 μL of individual anti-human GP130 monoclonal antibodies (0.5 or 5 μg/mL), incubated for two hours at 25° C. and then washed twice with 200 μL of DPBS with 0.05% Tween 20 (washing buffer). To detect and quantify the amounts of bound anti-GP130 antibody levels to individual microspheres, either 100 μL of 2.5 μg/mL R-Phycoerythrin conjugated goat F(ab′)2 anti-human kappa (Southern Biotech, Cat #2063-09) in blocking buffer, was added and incubated for 30 minutes at 25° C. After 30 minutes, the samples were washed twice with 200 μL of washing buffer and resuspended in 150 μL of wash buffer. The Median Fluorescence intensity (MFI) of the microspheres was measured in a Luminex Analyzer.

The target in assay [6] is T5, human GP130 delta D1-D3 expressed with a C-terminal myc-myc hexahistidine tag (human, UniProt P40189 329-619).
T5 construct: CHO supernatant, captured on anti-myc microspheres; also called human GP130 delta D1-D3-MMH
The assay is described as follows: Luminex, myc-captured antigen. How it is done:
as §5, §6

The target in assay [7] is T6, human GP130 extracellular domain expressed with a C-terminal myc-myc-hexahistidine tag (human, UniProt P40189 23-619).
T6 construct: monomeric; also called hGP130-mmH; hGP130-MMH
The assay is described as follows: SPR 25C, mAb captured, hGP130-MMH injected. The procedure:
as §3, §4

T6 sequence (P40189 other isoform, or with tags, fused parts or gaps): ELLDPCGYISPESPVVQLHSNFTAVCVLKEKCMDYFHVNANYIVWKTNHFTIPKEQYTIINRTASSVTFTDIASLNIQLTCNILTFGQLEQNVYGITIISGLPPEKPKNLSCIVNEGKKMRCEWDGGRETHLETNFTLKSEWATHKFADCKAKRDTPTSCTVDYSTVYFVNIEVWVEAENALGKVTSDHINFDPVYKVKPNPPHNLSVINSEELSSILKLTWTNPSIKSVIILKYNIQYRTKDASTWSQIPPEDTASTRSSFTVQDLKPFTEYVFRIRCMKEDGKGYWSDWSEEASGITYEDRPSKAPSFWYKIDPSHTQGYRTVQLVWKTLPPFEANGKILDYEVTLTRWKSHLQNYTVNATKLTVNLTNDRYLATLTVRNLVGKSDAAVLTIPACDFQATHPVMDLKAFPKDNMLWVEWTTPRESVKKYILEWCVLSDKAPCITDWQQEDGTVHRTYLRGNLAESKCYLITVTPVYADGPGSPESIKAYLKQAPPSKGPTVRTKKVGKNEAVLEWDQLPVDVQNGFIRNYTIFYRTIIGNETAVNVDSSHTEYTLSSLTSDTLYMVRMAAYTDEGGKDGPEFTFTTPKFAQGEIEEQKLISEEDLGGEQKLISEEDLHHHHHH
T4 sequence (P40189 other isoform, or with tags, fused parts or gaps mutant limits assumed): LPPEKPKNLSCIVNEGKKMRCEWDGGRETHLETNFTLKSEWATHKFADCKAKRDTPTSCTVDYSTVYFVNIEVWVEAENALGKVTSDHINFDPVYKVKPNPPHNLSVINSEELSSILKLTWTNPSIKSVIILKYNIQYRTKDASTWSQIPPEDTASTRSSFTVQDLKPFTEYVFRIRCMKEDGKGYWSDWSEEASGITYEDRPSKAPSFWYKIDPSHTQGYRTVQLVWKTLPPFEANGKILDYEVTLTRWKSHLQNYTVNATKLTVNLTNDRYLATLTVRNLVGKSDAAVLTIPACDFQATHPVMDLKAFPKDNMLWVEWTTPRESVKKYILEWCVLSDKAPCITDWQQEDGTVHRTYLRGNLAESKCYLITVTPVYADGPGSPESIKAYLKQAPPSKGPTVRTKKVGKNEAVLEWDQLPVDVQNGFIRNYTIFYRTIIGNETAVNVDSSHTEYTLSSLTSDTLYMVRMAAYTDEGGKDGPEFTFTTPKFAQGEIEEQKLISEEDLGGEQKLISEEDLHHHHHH
T5 sequence (P40189 other isoform, or with tags, fused parts or gaps mutant limits assumed): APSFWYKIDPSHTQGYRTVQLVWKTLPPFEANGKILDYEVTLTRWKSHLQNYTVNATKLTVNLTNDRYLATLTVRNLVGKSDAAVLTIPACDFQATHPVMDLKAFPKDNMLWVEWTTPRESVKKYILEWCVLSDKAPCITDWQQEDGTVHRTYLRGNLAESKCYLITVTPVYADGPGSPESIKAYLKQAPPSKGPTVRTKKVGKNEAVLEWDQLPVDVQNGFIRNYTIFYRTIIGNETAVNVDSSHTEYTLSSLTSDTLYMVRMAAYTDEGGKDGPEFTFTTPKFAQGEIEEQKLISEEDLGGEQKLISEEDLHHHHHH
T3 sequence (Q00560 other isoform, or with tags, fused parts or gaps): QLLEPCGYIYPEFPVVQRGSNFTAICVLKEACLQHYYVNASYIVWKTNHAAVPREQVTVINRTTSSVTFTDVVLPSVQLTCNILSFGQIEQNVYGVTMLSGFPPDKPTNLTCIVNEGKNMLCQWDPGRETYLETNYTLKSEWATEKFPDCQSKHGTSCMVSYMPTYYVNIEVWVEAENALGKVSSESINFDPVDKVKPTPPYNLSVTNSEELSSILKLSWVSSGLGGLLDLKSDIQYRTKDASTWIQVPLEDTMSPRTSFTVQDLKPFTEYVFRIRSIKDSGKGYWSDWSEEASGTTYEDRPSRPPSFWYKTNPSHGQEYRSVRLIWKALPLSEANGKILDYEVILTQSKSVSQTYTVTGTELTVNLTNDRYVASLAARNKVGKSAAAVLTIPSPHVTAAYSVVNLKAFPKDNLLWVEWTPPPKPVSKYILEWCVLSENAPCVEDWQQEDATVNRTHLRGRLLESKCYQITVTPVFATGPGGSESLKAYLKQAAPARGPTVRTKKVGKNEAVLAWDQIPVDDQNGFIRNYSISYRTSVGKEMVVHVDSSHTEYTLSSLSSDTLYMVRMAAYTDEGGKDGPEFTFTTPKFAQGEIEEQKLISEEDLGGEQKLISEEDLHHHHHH

B1: mAb16683 (antibody, V domains shown)
VH: QVQLVESGGGLVKPGGSLRLSCAASGFTFSDYYMTWIRQTPGKGLDWVSYISSSGTNKYNADSVKGRFTISRDNAKNSLYLQMNSLRAEDTAVYYCVRDPPWGMDVWGQGTTVTVSS
VL: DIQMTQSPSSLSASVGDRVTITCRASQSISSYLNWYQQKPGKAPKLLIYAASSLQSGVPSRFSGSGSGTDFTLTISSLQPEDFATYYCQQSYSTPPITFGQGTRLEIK
notes: Conventional anti-GP130 antibody; also called mAb16683 (anti-GP130 mAb)
Consider B1, for which the “Binding Ratio, normalized to unstained sample (FL4-A)” value (“Binding Ratio, normalized” for short) in assay [1] is 235 fold; in assay [2], 21 fold.

B2: mAb18445 (antibody, V domains shown)
VH: QVQLQESGPGLVKPSQTLSLTCTVSGGSISSGGDYWSWIRQLPGKGLEWIGYIYYSGSAYYNPSLKSRGTISIDTSKNQFSLKLTSVTAADTAVYFCVKLRFLEWFLGGWFGPWGQGTLVTVSS
VL: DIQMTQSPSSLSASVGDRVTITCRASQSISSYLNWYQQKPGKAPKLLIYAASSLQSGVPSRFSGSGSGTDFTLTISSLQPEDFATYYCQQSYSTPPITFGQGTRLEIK
notes: Conventional anti-LEPR antibody; also called mAB18445 (anti-LEPR mAb)
Turning to B2, the figures for the “Binding Ratio, normalized” value in assay [2] and in assay [3] were 4710 fold and 4250 fold, respectively.

B3: MAb16676 (antibody, V domains shown)
VH: QVQLVQSGAEVMKPGASVKVSCRASGYTFSSYDINWVRQAPGQGLEWMGWISTATGNTNYPQKVQGRVTMTTDTSTNTAYMELRSLRSDDTAVYYCTREGNSKGWLDPWGQGTLVTVSS
VL: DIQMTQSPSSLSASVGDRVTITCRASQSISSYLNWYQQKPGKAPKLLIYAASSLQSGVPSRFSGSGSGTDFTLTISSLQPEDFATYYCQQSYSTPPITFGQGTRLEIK
B3: in assay [4], the binding result was “no binding (tested: 100 nM)”. In addition, the binding result in assay [5] is recorded as “no binding (tested: 0.5 or 5 µg/mL)”. In addition, the binding result in assay [6] is listed as “no binding (tested: 0.5 or 5 µg/mL)”. Further, in assay [7], the “100 nM Ag Bound (RU)” value was found to be 51 RU, the Kd turned out to be 0.00219 µM, the koff came to 0.000631 s⁻¹ and the kon was found to be 287000 M⁻¹ s⁻¹. The t½ in assay [7] stood at 18 min.

B4: MAb16665 (antibody, V domains shown)
VH: QVQLVESGGGVVQPGRSLRLACAASGFTFRSYGMHWVRQAPGKGLEWVAVIWYDGSNKYYTDSVKGRFTISRDNSKNTLYLQMNSLRAEDTAMYYCAIDKWATVTTYLFDYWGQGTLVTVSS
VL: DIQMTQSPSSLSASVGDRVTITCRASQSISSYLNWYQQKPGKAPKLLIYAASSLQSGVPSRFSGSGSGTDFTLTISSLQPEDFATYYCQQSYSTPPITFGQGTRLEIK
For the molecule B4, in assay [4], the binding result is “no binding (tested: 100 nM)”. The binding result in assay [5] is reported as “no binding (tested: 0.5 or 5 µg/mL)”. Besides, the binding result in assay [6] is “no binding (tested: 0.5 or 5 µg/mL)”. Further, in assay [7], the “100 nM Ag Bound (RU)” value was 20 RU, the Kd amounted to 0.411 µM, the koff worked out at 0.0473 s⁻¹ and the kon is 115000 M⁻¹ s⁻¹. In assay [7], this molecule registered a t½ of 0.2 min.

B5: mAb18446 (antibody, V domains shown)
VH: EVQLVESGGGLVQPGGSLRLSCAASGFTFSNYGMTWVRQAPGKGLEWVSAITGGGGSTYYSNSVKGRFTISRDNSKNTVYLRMNSVRAEDTAVYYCAKYKWNFVDDWGQGTTVTVSS
VL: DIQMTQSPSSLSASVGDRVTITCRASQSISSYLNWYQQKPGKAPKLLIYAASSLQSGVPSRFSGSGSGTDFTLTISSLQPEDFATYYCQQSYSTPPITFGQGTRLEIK
notes: Conventional anti-LEPR antibody; also called mAB18446 (anti-LEPR mAb)
As for B5, the “Binding Ratio, normalized” value in assay [2] amounted to 7020 fold; in assay [3], 6390 fold.

Broadly, the Kd is the concentration at which binding is half-saturated. Low values mean tighter binding, high ones weaker binding. The term koff denotes the rate constant with which the complex falls apart. For orientation: kon means the rate constant with which the complex forms. A low value points to slow association. The t½ is the time in which the quantity being followed falls by half. Low readings indicate fast loss, high ones slow loss.
